Publication PMC4293345 (Molecular and cellular neurosciences, 2014)
Where two headings read alike, the source gives them in different places.

Tests used:
[1] = target: T1, MBP-tagged NCS-1 (neuronal calcium sensor-1) (UniProt P62166 1-190); experiment: pull-down
[2] = target: T1, MBP-tagged NCS-1 (neuronal calcium …); experiment: pull-down; remark: listed apart in the source

T1 sequence (P62166 whole entry): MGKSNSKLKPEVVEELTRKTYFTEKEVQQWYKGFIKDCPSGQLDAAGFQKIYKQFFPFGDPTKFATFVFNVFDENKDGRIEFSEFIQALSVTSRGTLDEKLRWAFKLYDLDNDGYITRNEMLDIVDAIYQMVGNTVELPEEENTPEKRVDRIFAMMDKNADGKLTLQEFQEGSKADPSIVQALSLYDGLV

- relative binding (ratio of IQ-GST to NCS-1-MBP) [1]: 0.57 ± 0.06
- relative binding (ratio of IQ-GST to NCS-1-MBP) [2]: 0.56 ± 0.06
B1: GST-tagged IQ-like domain of CaV2.1 (domain or fragment)
chain: LMALIRTALDIKIAKGGADKQQMDAELRKEMMAIWPNLSQKTLDLLVTPHKSTDLTVGKIYAAMMIMEYYRQSKAKKLQAMREEQNRTPLMFQRMEPPSPTQEGGPSQNALPSTQLD
